In patent US20140017212:

Key:
Assay in all cases: cell_activity
[1] = test system: ZFN SBS34931; details: HepG2-C3a, paired with 33940
[2] = test system: TALEN 102256
[3] = test system: TALEN 102255
[4] = test system: TALEN 102265
[5] = test system: TALEN 102266; details: C17, with 102268, HepG2-C3a
[6] = test system: TALEN 102252
[7] = test system: TALEN 102268
[8] = test system: TALEN 102267
[9] = test system: TALEN 102264; details: C63, with 102261, HepG2-C3a
[10] = test system: TALEN 102253
[11] = test system: TALEN 102254
[12] = test system: TALEN 102259
[13] = test system: TALEN 102262; details: C63, with 102264, HepG2-C3a
[14] = test system: ZFN SBS35405; details: Cel-I, paired with 35370
[15] = test system: ZFN SBS35399; details: Cel-I, paired with 35361
[16] = test system: ZFN SBS35396; details: Cel-I, paired with 35361; 31 and 29% in HepG2-C3a (Table 10)
[17] = test system: ZFN SBS35394; details: Cel-I, paired with 35364
[18] = test system: ZFN SBS35393; details: Cel-I, paired with 35370
[19] = test system: ZFN SBS35398; details: Cel-I, paired with 35361
[20] = test system: ZFN SBS35458; details: Cel-I, paired with 35428; 10 and 7% with 35426 in HepG2-C3a (Table 10)
[21] = test system: ZFN SBS35480; details: Cel-I, paired with 35426
[22] = test system: TALEN 102263; details: C63, with 102261, HepG2-C3a
[23] = test system: TALEN 102257
[24] = test system: TALEN 102258
[25] = test system: TALEN 102260
[26] = test system: ZFN SBS33940; details: HepG2-C3a, paired with 34931
[27] = test system: TALEN 102251; details: C17, with 102249, HepG2-C3a
[28] = test system: TALEN 102249
[29] = test system: TALEN 102250
[30] = test system: TALEN 102271; details: C17, with 102269, HepG2-C3a
[31] = test system: TALEN 102261; details: C63, with 102264, HepG2-C3a
[32] = test system: ZFN SBS35428; details: Cel-I, paired with 35480
[33] = test system: ZFN SBS35426; details: Cel-I, paired with 35480
[34] = test system: ZFN SBS35364; details: Cel-I, paired with 35394
[35] = test system: ZFN SBS35361; details: Cel-I, paired with 35396; 31 and 29% in HepG2-C3a (Table 10)
[36] = test system: ZFN SBS35379; details: Cel-I, paired with 35393
[37] = test system: ZFN SBS35370; details: Cel-I, paired with 35405
[38] = test system: TALEN 102269; details: C17, with 102271, HepG2-C3a

## ACCAAGAAGACAGACTAAAATGAAAATA (double strand) [34931 site]
[1]
  activity (% modification): 7.3

## ATAAAGCATAGTGCAATGG (double strand) [102256 site]
[2]; C17, with 102254, HepG2-C3a
  activity (% modification): 28
[2]; C63, with 102253, HepG2-C3a
  activity (% modification): 23

## ATAAAGCATAGTGCAATGGAT (double strand) [102255 site]
[3]; C17, with 102254, HepG2-C3a
  activity (% modification): 43
[3]; C63, with 102253, HepG2-C3a
  activity (% modification): 21

## ATAATTGAACATCATCCTG (double strand) [102265 site]
[4]; C17, with 102267, HepG2-C3a
  activity (% modification): 47
[4]; C63, with 102267, HepG2-C3a
  activity (% modification): 9.8

## ATAATTGAACATCATCCTGAG (double strand) [102266 site]
[5]
  activity (% modification): 10

## ATAGTGCAATGGATAGGTC (double strand) [102252 site]
[6]; C17, with 102250, HepG2-C3a
  activity (% modification): 32
[6]; C63, with 102249, HepG2-C3a
  activity (% modification): 8.3

## ATATTGGGCTCTGATTCCT (double strand) [102268 site]
[7]; C17, with 102266, HepG2-C3a
  activity (% modification): 10
[7]; C63, with 102265, HepG2-C3a
  activity (% modification): 7.9

## ATATTGGGCTCTGATTCCTAC (double strand) [102267 site]
[8]; C17, with 102265, HepG2-C3a
  activity (% modification): 47
[8]; C63, with 102265, HepG2-C3a
  activity (% modification): 9.8

## ATCTAATACTCTTTTAGTGTC (double strand) [102264 site]
[9]
  activity (% modification): 22

## ATTGAATTCATAACTATCC (double strand) [102253 site]
[10]; C17, with 102255, HepG2-C3a
  activity (% modification): 38
[10]; C63, with 102256, HepG2-C3a
  activity (% modification): 23

## ATTGAATTCATAACTATCCCA (double strand) [102254 site]
[11]; C17, with 102255, HepG2-C3a
  activity (% modification): 43
[11]; C63, with 102256, HepG2-C3a
  activity (% modification): 16

## ATTTATGAGATCAACAGCACA (double strand) [102259 site]
[12]; C17, with 102257, HepG2-C3a
  activity (% modification): 18
[12]; C63, with 102257, HepG2-C3a
  activity (% modification): 15

## ATTTTAGTCTGTCTTCTTG (double strand) [102262 site]
[13]
  activity (% modification): 17

## CCTATCCATTGCACTATGCTTTATTTAA (double strand) [locus 2 right site]
[14]
  activity (% mutated targets): 23
[15]
  activity (% mutated targets): 23
[16]
  activity (% mutated targets): 25
[17]
  activity (% mutated targets): 24
[18]
  activity (% mutated targets): 21
[19]
  activity (% mutated targets): 22

## CCTGTGCTGTTGATCTCATAAATAGAAC (double strand) [locus 3 right site]
[20]
  activity (% mutated targets): 4.9
[21]
  activity (% mutated targets): 7

## CTAATACTCTTTTAGTGTCT (double strand) [102263 site]
[22]
  activity (% modification): 16

## CTATGCTTTATTTAAAAAC (double strand) [102257 site]
[23]; C17, with 102259, HepG2-C3a
  activity (% modification): 18
[23]; C63, with 102259, HepG2-C3a
  activity (% modification): 15

## CTATGCTTTATTTAAAAACCA (double strand) [102258 site]
[24]; C17, with 102260, HepG2-C3a
  activity (% modification): 24
[24]; C63, with 102260, HepG2-C3a
  activity (% modification): 11

## CTATTTATGAGATCAACAGCA (double strand) [102260 site]
[25]; C17, with 102258, HepG2-C3a
  activity (% modification): 24
[25]; C63, with 102257, HepG2-C3a
  activity (% modification): 13

## CTGTTGATAGACACTAAAAGAGTATTAG (double strand) [33940 site]
[26]
  activity (% modification): 7.3

## GTGCAATGGATAGGTCTTT (double strand) [102251 site]
[27]
  activity (% modification): 15

## GTTGAAGATTGAATTCATA (double strand) [102249 site]
[28]; C17, with 102251, HepG2-C3a
  activity (% modification): 15
[28]; C63, with 102252, HepG2-C3a
  activity (% modification): 8.3

## GTTGAAGATTGAATTCATAAC (double strand) [102250 site]
[29]; C17, with 102252, HepG2-C3a
  activity (% modification): 32
[29]; C63, with 102252, HepG2-C3a
  activity (% modification): 8

## TTATGCATTTGTTTCAAAA (double strand) [102271 site]
[30]
  activity (% modification): 14

## TTCATTTTAGTCTGTCTTCTT (double strand) [102261 site]
[31]
  activity (% modification): 22

## TTGTGGTTTTTAAATAAAGCATAGTGCA (double strand) [locus 3 left site]
[32]
  activity (% mutated targets): 6
[33]
  activity (% mutated targets): 7

## TTTGGGATAGTTATGAATTCAATCTTCA (double strand) [locus 2 left site]
[34]
  activity (% mutated targets): 24
[35]
  activity (% mutated targets): 25
[36]
  activity (% mutated targets): 21
[37]
  activity (% mutated targets): 23

## TTTTTCTGTAGGAATCAGA (double strand) [102269 site]
[38]
  activity (% modification): 14
